T1: recombinant, soluble human RGMc fused to an Fc (human, UniProt Q6ZVN8 36-400, limits assumed)
T1 sequence: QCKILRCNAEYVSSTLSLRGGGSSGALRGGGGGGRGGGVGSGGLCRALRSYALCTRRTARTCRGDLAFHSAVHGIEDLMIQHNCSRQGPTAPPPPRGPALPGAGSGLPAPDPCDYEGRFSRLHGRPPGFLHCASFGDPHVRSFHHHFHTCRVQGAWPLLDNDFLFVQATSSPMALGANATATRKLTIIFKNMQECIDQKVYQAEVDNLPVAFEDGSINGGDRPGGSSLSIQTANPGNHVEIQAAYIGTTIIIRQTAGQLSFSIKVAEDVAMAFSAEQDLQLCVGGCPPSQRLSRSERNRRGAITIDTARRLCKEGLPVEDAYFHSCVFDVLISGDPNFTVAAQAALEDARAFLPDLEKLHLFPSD

T2: histidine tagged hRGMc (human, UniProt Q6ZVN8 36-400)
T2 construct: also called human RGMc-his; not shown: histidine tag
T2 sequence: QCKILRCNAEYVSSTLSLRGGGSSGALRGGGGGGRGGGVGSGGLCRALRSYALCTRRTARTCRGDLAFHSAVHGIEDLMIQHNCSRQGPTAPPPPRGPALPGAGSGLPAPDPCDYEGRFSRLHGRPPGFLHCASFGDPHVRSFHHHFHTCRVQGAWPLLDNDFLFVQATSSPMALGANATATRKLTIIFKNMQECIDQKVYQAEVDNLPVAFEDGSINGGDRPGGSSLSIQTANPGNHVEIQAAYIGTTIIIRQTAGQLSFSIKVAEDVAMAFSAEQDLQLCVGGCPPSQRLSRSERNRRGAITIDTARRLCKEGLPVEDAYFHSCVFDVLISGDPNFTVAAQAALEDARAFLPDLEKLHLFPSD

T3: histidine tagged hRGMa (human, UniProt Q96B86 46-425, limits assumed)
T3 construct: also called RGMa-his; not shown: histidine tag
T3 sequence: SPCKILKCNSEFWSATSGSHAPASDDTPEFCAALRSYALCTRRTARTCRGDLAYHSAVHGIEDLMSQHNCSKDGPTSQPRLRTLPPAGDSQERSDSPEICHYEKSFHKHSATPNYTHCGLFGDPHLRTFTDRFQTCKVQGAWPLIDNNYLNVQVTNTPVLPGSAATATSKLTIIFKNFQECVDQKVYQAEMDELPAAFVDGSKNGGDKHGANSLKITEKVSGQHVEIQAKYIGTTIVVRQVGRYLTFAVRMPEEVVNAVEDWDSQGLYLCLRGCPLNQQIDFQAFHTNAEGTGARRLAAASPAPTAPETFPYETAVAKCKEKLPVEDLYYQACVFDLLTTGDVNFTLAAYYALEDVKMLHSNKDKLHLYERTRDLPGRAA

T4: histidine tagged hRGMb (human, UniProt Q6NW40 46-413)
T4 construct: not shown: histidine tag
T4 sequence: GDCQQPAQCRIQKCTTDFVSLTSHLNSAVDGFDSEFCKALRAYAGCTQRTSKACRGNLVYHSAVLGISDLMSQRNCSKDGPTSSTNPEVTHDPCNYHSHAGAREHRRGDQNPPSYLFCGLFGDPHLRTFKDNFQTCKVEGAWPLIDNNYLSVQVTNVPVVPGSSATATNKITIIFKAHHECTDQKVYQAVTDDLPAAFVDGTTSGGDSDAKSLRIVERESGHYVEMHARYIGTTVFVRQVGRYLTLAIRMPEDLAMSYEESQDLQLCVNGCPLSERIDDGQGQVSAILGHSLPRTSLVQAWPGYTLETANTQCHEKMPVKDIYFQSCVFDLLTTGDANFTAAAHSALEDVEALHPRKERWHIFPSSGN


Experiments:
[1] = molecular target: T1, recombinant, soluble human RGMc fused …; assay: cell-based or functional assay
histidine tagged hRGMc = molecular target: T2, histidine tagged hRGMc; assay: MSD-SET, full-length antibody against human RGMc-his
Procedure: The titration was then added to a pre-coated plate with a capture antibody (pre-labeled with an NHS-sulfotag) that depletes any free antigen from solution. After a 150 second incubation, the plate was washed 3 times and an SA-sulfotag reagent was added and incubated for 3 min. After additional washes the plate was read on a MesoQuickPlex SQ120.
A similar MSD-SET assay was performed with the full-length antibodies against the human RGMc-his antigen to determine binding affinity (KD)).

[2] = molecular target: T1, recombinant, soluble human RGMc fused …; assay: cell-based or functional assay; remark: listed apart in the source
histidine tagged hRGMa = molecular target: T3, histidine tagged hRGMa; assay: Octet (BLI), antibody on AHC biosensor, his-tagged hRGMa in solution (concentrations from paragraph 460)
Procedure: (§1) Antibodies that are selective for RGMc were generated using known techniques as describe herein. RGMc specificity over RGMa and RGMb was verified using an in vitro binding assay (i.e., Octet®). […] After loading, a baseline reading was obtained by placing the tips into 1× Kinetics Buffer before calculating the on rate, or association, of the antibodies by presenting them to histidine tagged hRGMc, hRGMa, or hRGMb, at varying concentrations (900 nM, 300 nM, 100 nM, and 33 nM). After reaching binding saturation, a dissociation step was performed to calculate the off rate by moving the tips back into 1× Kinetics Buffer. The rate of binding and dissociation can then be used to calculate the KD, or binding affinity of each antibody to the main target (RGMc) while ensuring no cross binding to RGM family members (RGMa and RGMb).

histidine tagged hRGMb = molecular target: T4, histidine tagged hRGMb; assay: Octet (BLI), antibody on AHC biosensor, his-tagged hRGMb in solution (concentrations from paragraph 460)
Procedure: as §1

| Binder | EC50 (ug/mL), BMP activity assay [1] | Kd (histidine tagged hRGMc) | EC50 in the BRE reporter assay (BMP6 reporter activity, luciferase RLU) [2] | binding result (histidine tagged hRGMa) | binding result (histidine tagged hRGMb) |
| --- | --- | --- | --- | --- | --- |
| SR-RC-AB9 (antibody, V domains shown, Tested as a full-length antibody) VH: QVQLVQSGAEVKKPGSSVKVSCKASGGTFSSYSIQWVRQAPGQGLEWMGGIIPIFGVASYAQKFQGRVTITADESTSTAYMELSSLRSEDTAVYYCARGAIAATYGLGMDVWGQGTTVTVSS VL: not shown | 3.45 µg/mL | 0.024 nM | – | – | – |
| SR-RC-AB3 (antibody, V domains shown, Tested as a full-length antibody, captured by anti-human IgG Fc sensors; also called parental antibody) VH: QVQLVQSGAEVKKPGSSVKVSCKASGGTFSSYAISWVRQAPGQGLEWMGGIIPIFGTANYAQKFQGRVTITADESTSTAYMELSSLRSEDTAVYYCARGAIAATYGLGMDVWGQGTTVTVSS VL: not shown | 4.83 µg/mL | 4.3 nM | 6.83 nM | no binding (tested: 900 nM) | no binding (tested: 900 nM) |
| SR-RC-AB7 (antibody, V domains shown, Tested as a full-length antibody) VH: QVQLVQSGAEVKKPGSSVRVSCKASGGTFSSYAIQWVRQAPGQGLEWMGGIIPIFGVASYAQKFQGRVTITADESTSTAYMELSSLRSEDTAVYYCARGAIVATYGLGMDVWGQGTTVTVSS VL: not shown | 3.87 µg/mL | 0.021 nM | – | – | – |
| SR-RC-AB8 (antibody, human IgG4, V domains shown) VH: QVQLVQSGAEVKKPGSSVKVSCKASGGTFRSYSISWVRQAPGQGLEWMGGIIPIFGVANYAQKFQGRVTITADESTSTAYMELSSLRSEDTAVYYCARGAYEATYGLGMDVWGQGTTVTVSS VL: not shown | 3.63 µg/mL | 0.039 nM | – | – | – |

Reference: US20210380669A1 (SCHOLAR ROCK, published 2021)
